Data as given in patent US20240336909A1 (HARPOON THERAPEUTICS, published 2024).

T1: human EpCAM protein (human, UniProt P16422 24-265)
T1 construct: biotinylated in the Octet assays; also called hu EpCAM; biotinylated human EpCAM protein
T1 sequence (looked up): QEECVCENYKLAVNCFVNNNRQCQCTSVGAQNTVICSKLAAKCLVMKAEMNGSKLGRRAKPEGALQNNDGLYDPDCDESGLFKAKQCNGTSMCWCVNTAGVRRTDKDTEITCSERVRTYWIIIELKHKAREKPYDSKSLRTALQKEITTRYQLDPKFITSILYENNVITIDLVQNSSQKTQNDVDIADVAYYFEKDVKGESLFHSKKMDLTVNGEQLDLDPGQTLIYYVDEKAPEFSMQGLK


How the values were obtained:
[1] = biological target: T1, human EpCAM protein; assay: colorimetric ELISA
From the text: (§1) Llamas were immunized with purified EpCAM protein expressed in Expi293 cells. A phage display library for expression of heavy variable antibody domains was constructed from circulating B cells. See van der Linden, de Geus, Stok, Bos,van Wassenaar, Verrips, and Frenken. 2000. J Immunol Methods 240:185-195. Phage clones were screened for binding to EpCAM by expressing anti-EpCAM proteins in E coli, preparing periplasmic extracts, and proteins were screened for human and cynomolgus EpCAM binding activity using a colorimetric ELISA.

[2] = biological target: T2, cynomolgus EpCAM protein (cynomolgus monkey); assay: colorimetric ELISA
T2 construct: biotinylated in the Octet assays; also called cy EpCAM; cynomolgus monkey EpCAM
From the text: as §1

T2 sequence (Q1WER1 24-265): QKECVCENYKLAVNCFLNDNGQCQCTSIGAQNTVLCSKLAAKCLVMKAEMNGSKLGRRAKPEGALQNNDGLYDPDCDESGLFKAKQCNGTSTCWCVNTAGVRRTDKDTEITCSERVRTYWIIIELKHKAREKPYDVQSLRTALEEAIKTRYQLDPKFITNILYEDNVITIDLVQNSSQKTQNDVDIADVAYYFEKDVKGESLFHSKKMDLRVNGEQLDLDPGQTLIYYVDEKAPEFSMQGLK

| ELISA absorbance [1] | Human EpCAM/Control [1] | Cynomolgus EpCAM/Control [2] | ELISA absorbance [2] | Binder |
| --- | --- | --- | --- | --- |
| 2 absorbance | 3 ratio | 2 ratio | 1.1 absorbance | Llama anti-EpCAM single domain antibody EPL83 (VHH, E. coli periplasmic extract) VHH: QVQLQESGGGLVQAGGSLRLSCAVSGSIFSLNTLAWYRQAPGRQRDLIARITGGGTTVYADSVKGRFTISRDNAKNTVYLQMNSLKPEDTAVYYCNLMVRHPSGSTYEYWGQGTQVTVSS |
| 0.9 absorbance | 4 ratio | 5 ratio | 1.1 absorbance | Llama anti-EpCAM single domain antibody EPL82 (VHH, E. coli periplasmic extract) VHH: QVQLQESGGGLVQAGGSLKLSCTASGTILSTMAWYRQAPGKQRELVATISRGGTTNYSDSVKGRFAISRDSTKNTVYLQMNSLKPEDTAVYYCNTPLTDYGMGYNWGQGTQVTVSS |
| 0.6 absorbance | 3 ratio | 2 ratio | 0.4 absorbance | Llama anti-EpCAM single domain antibody EPL145 (VHH, E. coli periplasmic extract) VHH: QVQLQESGGGLVQAGGSLRLSCAASGFIFRAASMGWFRQSPGNERELVATVSSGGFTNYADSVKGRFTISRDNAKNTVYLQMNSLKPEDTAVYFCGATFVRSDGHHTIYGQGTQVTVSS |
| 3.4 absorbance | 5 ratio | 4 ratio | 2.8 absorbance | Llama anti-EpCAM single domain antibody EPL126 (VHH, E. coli periplasmic extract) VHH: QVQLQESGGGLVQAGGSLRLSCAASGFIFRAASMGWYRQSPGNERELVATINSGGFTNYADSVKGRFTISRDNAKNTGYLQMNSLKPEDTAVYFCAATFLRSDGQPPIWGQGTQVTVSS |
| 0.6 absorbance | 7 ratio | 34 ratio | 2.8 absorbance | Llama anti-EpCAM single domain antibody EPL164 (VHH, E. coli periplasmic extract) VHH: QVQLQESGGGLVQAGGSLRLSCAASGFIFRAASMDWYRQSPGTQPELVATISSTGFTNYANSVKGRFTISRDNAKNTVYLQMNSLKPEDTAVYFCGATFLRSDGQHSIYGQGTQVTVSS |
| 3.1 absorbance | 3 ratio | 3 ratio | 2.7 absorbance | Llama anti-EpCAM single domain antibody EPL138 (VHH, E. coli periplasmic extract) VHH: QVQLQESGGGLVQAGGSLRLSCAASGFIFRAASMDWYRQFPGNERESIATISSGGFTNYADSVKGRFTISRDNAKNTVYLQMNSLKPEDTAVYFCGATFLRSDGHHTINGQGTQVTVSS |
| 3.4 absorbance | 5 ratio | 4 ratio | 2.9 absorbance | Llama anti-EpCAM single domain antibody EPL118 (VHH, E. coli periplasmic extract) VHH: QVQLQESGGGLVQAGGSLRLSCAASGFIFRAASMGWFRQSPGNERELVATVSSGDFTNYADSVKGRFTISRDNAKNTVYLQMNSLKPEDTAVYFCGATFVRSDGHHTIYGQGTQVTVSS |
| 1.6 absorbance | 10 ratio | 10 ratio | 1.7 absorbance | Llama anti-EpCAM single domain antibody EPL90 (VHH, E. coli periplasmic extract) VHH: QVQLQESGGGLVQAGGSLRLSCAASGFIFRAASMAWYRQSPGNERELVASISSGAFTNYADSVKARFTISRDNAKNTVYLQMNSLKPEDTAVYFCGATFLRSDGHHTINGQGTQVTVSS |
| 1.1 absorbance | 10 ratio | 33 ratio | 3.5 absorbance | Llama anti-EpCAM single domain antibody EPL60 (VHH, E. coli periplasmic extract) VHH: QVQLQESGGGLVQAGGSLRLSCAASEYILSMYRMAWYRQAPGKVRELVADMSSGGTTNYADFVKGRFTISRDNDRNTVYLQMNRLQPEDTAAYYCNVAGRTGPPSYDAFNNWGQGTQVTVSS |
| 3.6 absorbance | 16 ratio | 17 ratio | 4 absorbance | Llama anti-EpCAM single domain antibody EPL156 (VHH, E. coli periplasmic extract) VHH: QVQLQESGGGLVQPGASLRVSCAASEYILSMYRMAWYRQAPGKVRELVADMSSGGTTNYADFVKGRFTISRDNDRNTVYLQMNRLQPEDTAAYYCNVAGRTGPPSYDAFNNWGQGTQVTVSS |
| 2.7 absorbance | 12 ratio | 9 ratio | 2 absorbance | Llama anti-EpCAM single domain antibody EPL10 (VHH, E. coli periplasmic extract) VHH: QVQLQESGGGLVQAGGSLRLSCAASGSVFRANVMGWYRQAPGKQHELVARIDPGGTTTYADPVKGRFTISRDNAKKTVYLQMNSLKPDDTAVYYCNAIILLSGGPKDYWGQGTQVTVSS |
| 2.5 absorbance | 8 ratio | 5 ratio | 1.7 absorbance | Llama anti-EpCAM single domain antibody EPL97 (VHH, E. coli periplasmic extract) VHH: QVQLQESGGGLVQAGGSLRLSCAASGIIFRGTTMGWFRQAPGKQRESVASISPLGTTSYSGSVEGRFTVSRDNAKNTLFLQMNSLKSEDTAVYYCNAIQVTNVGPRVYWGQGTQVTVSS |
| – | – | 2 ratio | 0.2 absorbance | Llama anti-EpCAM single domain antibody EPL159 (VHH, E. coli periplasmic extract) VHH: QVQLQESGGGLVQAGGSLRLSCAASGFAFGNHWMYWYRQAPGRGRELVASISSGGSTNYVDSVKGRFTISRDNARNTVYLQMYSLKPEDTAVYYCGTSDNWGQGTQVTVSS |
| 1.4 absorbance | 10 ratio | 5 ratio | 0.7 absorbance | Llama anti-EpCAM single domain antibody EPL74 (VHH, E. coli periplasmic extract) VHH: QVQLQESGGGLVQAGGSLRLSCAASGSIFGINAMGWYRQAPGKQRESVAFITIGGNTNYLDSVKGRFTISRDNAKNTVYLQMNGLKPEDTAVYYCNTNPPLILTAGGLYWGQGTQVTVSS |
| 1.1 absorbance | 8 ratio | 4 ratio | 0.6 absorbance | Llama anti-EpCAM single domain antibody EPL49 (VHH, E. coli periplasmic extract) VHH: QVQLQESGGGLVQAGGSLRLSCAPSGRTSSIFGMGWFRQAPGKEREFVASINWSGGSTSYADSVKGRFTISRDNAKNEMYLQMNSLKFEDTAVYVCAAAVLTNKPSWNFWGQGTQVTVSS |
| 1.1 absorbance | 8 ratio | 4 ratio | 0.5 absorbance | Llama anti-EpCAM single domain antibody EPL58 (VHH, E. coli periplasmic extract) VHH: QVQLQESGGGLVQAGGSLRLSCAASGPIFSDTIRTMGWYRQAAGKQRELVATIASFPSRTNYVDSVKGRFTISRDIAKNTVYLQMDSLKPEDTAVYYCNVDLASIPTKTYWGQGTQVTVSS |
| 2.2 absorbance | 15 ratio | 24 ratio | 3.6 absorbance | Llama anti-EpCAM single domain antibody EPL2 (VHH, E. coli periplasmic extract) VHH: QVQLQESGGGLVQPGGSLRLSCAASESISSFIAVGWYRQAPGKERELVAGINRSGFTYYTDSVKGRFSISRDNAKNTVLLQMTSLKPEDTAVYYCNAGGLYFSNAYTQGDYWGQGTQVTVSS |
| 1.8 absorbance | 13 ratio | 27 ratio | 3.8 absorbance | Llama anti-EpCAM single domain antibody EPL43 (VHH, E. coli periplasmic extract) VHH: QVQLQESGGGLVQTGGSLRLSCAASESISSFIAVGWYRQAPGKERELVAGINRSGFTYYTDSVKGRFSISRDNAKNTVLLQMTSLKPEDTAVYYCNAGGLYFSNAYTQGDYWGQGTQVTVSS |
| 3.1 absorbance | 17 ratio | 11 ratio | 2 absorbance | Llama anti-EpCAM single domain antibody EPL78 (VHH, E. coli periplasmic extract) VHH: QVQLQESGGGLVQPGGSLRLSCATSANRFNINVMGWYRQAPGQQRELVATINIGGSTDYADSVKGRFTISRDNAKNTVYLQLSDLKPEDTAVYYCNVKLRVSGPTGPNVYWGQGTQVTVSS |
